The source of these data is patent US20100323904, “Transcription chip” (published 2010).

The target in data set [1] is T1, NF-kB p50 (UniProt P19838 P19838:1-433). Description: array fluorescence immunoassay, 100 ng/mL. The following applies: tags: Promega; chain copies: 2. On the procedure: (§1) After washing twice with the washing buffer, NFκB diluted at 100 ng/mL with the binding buffer was added, and shaken at room temperature for one hour. After washing three times with the washing buffer, anti-NFκB antibody (RCK) diluted 100 times with antibody diluting buffer was added, and shaken at room temperature for one hour. After washing twice with the washing buffer, FITC-labeled anti-rabbit IgG antibody diluted 50 times with the antibody diluting buffer was added, and shaken at room temperature for one hour. After washing twice with the washing buffer, at a fluorescence wavelength of 535 nm based on Fluorescence of FITC excited with laser at a wavelength of 473 nm, fluorescent intensity was detected by CRBIO II microarray scanner.
T1 sequence (P19838 1-433, one chain of several): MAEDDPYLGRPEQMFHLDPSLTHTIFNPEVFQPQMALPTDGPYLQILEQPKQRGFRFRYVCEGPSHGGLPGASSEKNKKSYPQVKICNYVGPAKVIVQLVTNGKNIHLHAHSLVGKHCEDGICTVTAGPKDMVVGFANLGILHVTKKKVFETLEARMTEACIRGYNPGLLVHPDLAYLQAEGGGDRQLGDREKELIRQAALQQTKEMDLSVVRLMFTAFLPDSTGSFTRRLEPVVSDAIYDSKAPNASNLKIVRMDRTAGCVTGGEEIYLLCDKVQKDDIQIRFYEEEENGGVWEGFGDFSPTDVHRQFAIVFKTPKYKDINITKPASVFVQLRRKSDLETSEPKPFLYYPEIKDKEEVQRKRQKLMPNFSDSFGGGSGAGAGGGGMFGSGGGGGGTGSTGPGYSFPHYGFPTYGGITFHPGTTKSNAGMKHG
The oligonucleotides comprising 9 element sequences, PRD II, AP1, p53, VDRE, RARE, CRE, TRE, GRE and ERE which were not labeled with FITC were similarly immobilized on the DLC chip. NFκB (100 ng/mL) was added to the DLC chip on which these 9 transcription factors had been arrayed, and detected by fluorescence immunoassay. As a result, the fluorescence was detected only from the oligonucleotide comprising PRD II which was the NFκB recognition sequence. […] Therefore, it is possible to construct the system in which multiple transcription factors are simultaneously detected in a sample in a small amount by combining antibodies which specifically recognize the transcription factors which is bound to the other element sequences.

Data set [2] has as its target T1, NF-kB p50. Briefly: array fluorescence immunoassay, 100 ng/mL; in ELISA about 30-50% background color before blocking optimisation. As to conditions: tags: Promega; chain copies: 2. As to the method:
as §1
The oligonucleotides comprising 9 element sequences, PRD II, AP1, p53, VDRE, RARE, CRE, TRE, GRE and ERE which were not labeled with FITC were similarly immobilized on the DLC chip. NFκB (100 ng/mL) was added to the DLC chip on which these 9 transcription factors had been arrayed, and detected by fluorescence immunoassay. As a result, the fluorescence was detected only from the oligonucleotide comprising PRD II which was the NFκB recognition sequence. […]

Data set [3] concerns the target T1, NF-kB p50. Briefly: ELISA; on-chip ELISA; detected down to 1.0 ng/mL (DLC) and 0.33 ng/mL (GeneDia); 1% BSA, 10 mM HEPES pH 7.5, salmon sperm DNA, 2 mM DTT, room temperature; also fluorescence immunoassay on array. The following applies: tags: Promega; chain copies: 2. As to the method: (§2) The plate was washed twice with the washing buffer, NFκB at various concentrations diluted with the binding buffer was added, and the plate was shaken at room temperature for one hour. The plate was washed three times with the washing buffer, anti-NFκB antibody diluted 2000 times with antibody diluting buffer was added, and the plate was shaken at room temperature for one hour. The plate was washed three times with the washing buffer, POD-labeled anti-rabbit IgG secondary antibody diluted 2000 times with the antibody diluting buffer was added, and the plate was shaken at room temperature for one hour. The plate was washed five times with the washing buffer, and subsequently absorbance at a wavelength of 450 nm based on the absorbance of TMBZ which was a color development substrate of POD was measured by a microplate reader.
(§3) In order to investigate an ELISA condition for NFκB, the double-stranded DNA comprising the element DNA sequence different in length and copy number were synthesized by the PCR method or a synthetic method, and analyzed. When PRD II-1 comprising one copy of the PRD II sequence was compared with PRD II-2, the immobilized PRD II-2 was more excellent in efficiency of trapping NFκB (FIG. 5). […]

Another data set concerns the target T2, Vitamin D receptor (VDR) (UniProt P11473 P11473:1-427).
T2 sequence: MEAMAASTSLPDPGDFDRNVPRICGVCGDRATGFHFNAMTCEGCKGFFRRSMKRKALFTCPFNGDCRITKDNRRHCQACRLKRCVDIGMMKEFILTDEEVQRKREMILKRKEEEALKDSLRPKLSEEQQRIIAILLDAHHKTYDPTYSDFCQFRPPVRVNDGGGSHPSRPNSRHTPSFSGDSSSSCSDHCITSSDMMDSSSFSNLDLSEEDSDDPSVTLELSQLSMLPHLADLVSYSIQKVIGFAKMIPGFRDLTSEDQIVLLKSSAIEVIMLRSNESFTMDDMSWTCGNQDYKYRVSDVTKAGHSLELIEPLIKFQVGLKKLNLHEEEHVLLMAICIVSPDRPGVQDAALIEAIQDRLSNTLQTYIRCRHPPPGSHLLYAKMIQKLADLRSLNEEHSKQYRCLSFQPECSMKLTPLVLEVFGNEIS
Description: 500 fmol/chip; captured VDR detected by on-chip trypsin digestion and MALDI-TOF MS. On the procedure: Next, the on-chip digestion of 500 fmol/chip of vitamin D receptor was performed using trypsin (1 μg/mL) on the chip on which the element sequence VDRE which was the recognition sequence of the vitamin D receptor had been immobilized. Subsequently, the sample was added to the MALDI plate, and consequently, the same peptide map as that obtained by trypsin digestion of the sample in the solution was obtained as is the case with NFκB (FIGS. 16 and 17).

For data set [4], the target named is T1, NF-kB p50. Description: ELISA; trapping equivalent to or more than PRD II-2. The following applies: tags: Promega; chain copies: 2; label: 5'-FITC on bottom strand. On the procedure:
as §2, §3

B1: CRE (dsDNA)
DNA 1: GGGAGCTGAGTATGACGTCAATGCATGCTGACGTCACATG
DNA 2: CATGTGACGTCAGCATGCATTGACGTCATACTCAGCTCCC
modifications: 5'-NH2(CH2)12 on top strand, immobilized on chip
Regarding B1, the binding result with NF-kB p50 [1] is on record as “no binding”.

B2: TRE (dsDNA)
DNA 1: GGGAGCTGAGTAAGGTCATGACCTATGCATGCAGGTCATGACCTCATG
DNA 2: CATGAGGTCATGACCTGCATGCATAGGTCATGACCTTACTCAGCTCCC
modifications: 5'-NH2(CH2)12 on top strand, immobilized on chip
Consider B2, for which, in the data set with NF-kB p50 [1], the binding result is listed as “no binding”.

B3: AP1 (dsDNA)
DNA 1: GGGAGCTGAGTATGACTCATATGCATGCTGACTCATCATG
DNA 2: CATGATGAGTCAGCATGCATATGAGTCATACTCAGCTCCC
modifications: 5'-NH2(CH2)12 on top strand, immobilized on chip
With B3, the binding result with NF-kB p50 [2] is “no binding”.

B4: PRD II (two copies) (dsDNA)
DNA 1: GGGAGCTGAGTAGGGAAATTCCATGCATGCGGGAAATTCCCATG
DNA 2: CATGGGAATTTCCCGCATGCATGGAATTTCCCTACTCAGCTCCC
modifications: 5'-NH2(CH2)12 on top strand, immobilized on chip
Consider B4, for which the binding result with NF-kB p50 [3] is “binds”.

B5: VDRE (dsDNA)
DNA 1: GGGAGCTGAGTAAGGTCAAGGAGGTCAATGCATGCAGGTCAAGGAGGTCACATG
DNA 2: CATGTGACCTCCTTGACCTGCATGCATTGACCTCCTTGACCTTACTCAGCTCCC
modifications: 5'-NH2(CH2)12 on top strand, immobilized on chip
B5: the binding result in the data set with Vitamin D receptor (VDR) is reported as “binds”; with NF-kB p50 [1], “no binding”.

B6: IgkB (two copies) (dsDNA)
DNA 1: GGGAGCTGAGTAGGGGATCCCATGCATGCGGGGATCCCCATG
DNA 2: CATGGGGATCCCCGCATGCATGGGATCCCCTACTCAGCTCCC
modifications: 5'-NH2(CH2)12 on top strand, immobilized on chip
As to B6, the binding result with NF-kB p50 [4] was “binds”.

B7: RARE (dsDNA)
DNA 1: GGGAGCTGAGTAAGGTCACCAGGAGGTCAATGCATGCAGGTCACCAGGAGGTCACATG
DNA 2: CATGTGACCTCCTGGTGACCTGCATGCATTGACCTCCTGGTGACCTTACTCAGCTCCC
modifications: 5'-NH2(CH2)12 on top strand, immobilized on chip
Take B7: the binding result with NF-kB p50 [1] is “no binding”.
